Results reported in patent publication US20230375531A1 (MIT, published 2023).

Experiments:
[1] = target: SARS-CoV-2 nucleocapsid (N) protein, recombinant, residues 1-419 (SARS-CoV-2, UniProt P0DTC9 1-419)
[2] = target: T1, truncated N-terminal domain (NTD) of SARS-CoV-2 N protein (SARS-CoV-2, UniProt P0DTC9 44-180); test: BLI, BA-MBP-Sso.E1 on streptavidin probes
T1 construct: domain: N-terminal domain (NTD)

[3] = target: T2, truncated C-terminal domain (CTD) of SARS-CoV-2 N protein (SARS-CoV-2, UniProt P0DTC9 247-364); test: BLI, BA-MBP-Sso.E2 on streptavidin probes
T2 construct: domain: C-terminal domain (CTD)

B1: Sso.E1 (rcSso7d binder against SARS-CoV-2 N protein) (designed binder)
chain: MATVKFTYQGEEKQVDISKIKIVRRGGQWISFWYDEGGGAYGAGYVSEKDAPKELLQMLEKQ
- Kd [1]: 3.2 nM

B2: BA-MBP-Sso.E1 (Sso.E1 fused to biotin and maltose binding protein) (designed binder, not shown: small tags and cut ends; large carriers)
chain: B1 chain
notes: also called reporter reagent
- binding result [2]: no binding

B3: Sso.E2 (rcSso7d binder against SARS-CoV-2 N protein) (designed binder)
chain: MATVKFTYQGEEKQVDISKIKNVGRWGQIIDFDYDEGGGAIGIGAVSEKDAPKELLQMLEKQ
- Kd [1]: 4.2 nM

B4: BA-MBP-Sso.E2 (Sso.E2 fused to biotin and maltose binding protein) (designed binder)
chain: B3 chain
- binding result [3]: no binding
